Biological target: T1, rat antibody hybridoma clone M7/1 (EMAP II neutralizing M7/1 antibody)
T1 construct: Rat monoclonal IgG from a hybridoma; also called rat monoclonal neutralizing antibody M7
Assay: description in the sequence table

T1 sequence (VH, as listed by the source, chain 1 of 2): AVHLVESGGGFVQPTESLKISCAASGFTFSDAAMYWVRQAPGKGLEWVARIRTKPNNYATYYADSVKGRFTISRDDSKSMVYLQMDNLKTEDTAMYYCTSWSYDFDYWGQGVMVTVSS
T1 sequence (VL, as listed by the source, chain 2 of 2): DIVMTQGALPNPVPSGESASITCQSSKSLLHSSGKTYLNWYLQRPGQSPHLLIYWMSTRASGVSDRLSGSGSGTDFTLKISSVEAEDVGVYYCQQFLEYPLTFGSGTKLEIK

binding result: binds
B1: Peptide 2 (QQSIAGSADSKPIDVSR) (peptide)
peptide: QQSIAGSADSKPIDVSR
notes: Synthetic peptide from human EMAP II; also called ID NO; 12
